Where two headings read alike, the source gives them in different places.

Series [1] has as its target T1, FLP recombinase (native yeast) (Saccharomyces cerevisiae) (UniProt P03870).
T1 sequence: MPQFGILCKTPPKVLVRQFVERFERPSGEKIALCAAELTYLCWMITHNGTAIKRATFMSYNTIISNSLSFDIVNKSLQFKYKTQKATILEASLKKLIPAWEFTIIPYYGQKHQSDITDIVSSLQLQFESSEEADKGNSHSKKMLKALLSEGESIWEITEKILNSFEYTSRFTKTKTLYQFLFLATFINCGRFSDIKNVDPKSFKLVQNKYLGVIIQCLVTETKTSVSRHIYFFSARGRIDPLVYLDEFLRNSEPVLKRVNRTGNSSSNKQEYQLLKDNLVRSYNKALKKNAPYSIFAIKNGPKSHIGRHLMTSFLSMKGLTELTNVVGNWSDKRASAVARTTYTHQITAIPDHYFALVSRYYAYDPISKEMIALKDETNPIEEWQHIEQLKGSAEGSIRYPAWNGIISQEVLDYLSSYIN
Put plainly: cleavage_in_vitro.

Series [2] deals with T1, FLP recombinase (native yeast) (Saccharomyces cerevisiae).

On to “AGTTCCTATACTTTCTGGAGAATAGGAACT (double strand) [FRT87]”, for which the activity (% excision efficiency relative to FRT1) in series [1] (30 C, 10 mM MgCl2) was determined as 93.
The same measure, in the same setting: the same measure for “AGTTCCTATACTTTAGGTAGAATAGGAACT (double strand) [FRT62]”: 72; for “AGTTCCTATACTGTAATGAGAATAGGAACT (double strand) [FRT34]”: 34.
Take “AGTTCCTATACTCTTTTGAGAATAGGAACT (double strand) [FRT5]”: the activity (% co-integrants at 2 h) in series [2] (in vitro co-integration FRT5+FRT5, 10 mM MgCl2, 5 mM DTT) is 0.09. Also, the activity (% excision efficiency relative to FRT1) in series [1] (30 C, 10 mM MgCl2) is 15.
Take “AGTTCCTATACTGTAAAAAGAATAGGAACT (double strand) [FRT53]”: the activity (% excision efficiency relative to FRT1) in series [1] (30 C, 10 mM MgCl2) stood at 64.
For the sequence “AGTTCCTATACTCTATGTAGAATAGGAACT (double strand) [FRT12]”, the activity (% excision efficiency relative to FRT1) in series [1] (30 C, 10 mM MgCl2) turned out to be 102.
Same read-out and setting: the same measure for “AGTTCCTATACTGAAAAGAGAATAGGAACT (double strand) [FRT78]”: 60.
The same measure, in the same setting: in the case of “AGTTCCTATACTATACAAAGAATAGGAACT (double strand) [FRT70]” it was 25; in that of “AGTTCCTATACTTTTGTGAGAATAGGAACT (double strand) [FRT69]”, 9.
On the same count and under the same terms, the same measure for “AGTTCCTATACTCCACAGAGAATAGGAACT (double strand) [FRT55]”: 7; for “AGTTCCTATACTTTCTCGAGAATAGGAACT (double strand) [FRT86]”: 12.
“AGTTCCTATACTTTCTAGAGAATAGGAACT (double strand) [FRT1 (wild-type minimal FRT)]”: the activity (% co-integrants at 2 h) in series [2] (in vitro co-integration FRT1+FRT1, 10 mM MgCl2, 5 mM DTT) was 1.03. The activity (% excision efficiency relative to FRT1) in series [1] (reference pair, 25 mM Tris pH 7.5, 10 mM MgCl2, 5 mM DTT, 30 C 30 min) was 100.
For “AGTTCCTATACTTTTTGAAGAATAGGAACT (double strand) [FRT6]”, the activity (% co-integrants at 2 h) in series [2] (in vitro co-integration FRT6+FRT6, 10 mM MgCl2, 5 mM DTT) was 0.27.
In the case of “AGTTCCTATACTTTTCTAAGAATAGGAACT (double strand) [FRT57]”, the activity (% excision efficiency relative to FRT1) in series [1] (30 C, 10 mM MgCl2) came to 82.
As for “AGTTCCTATACTGAGAGAAGAATAGGAACT (double strand) [FRT74]”, the activity (% excision efficiency relative to FRT1) in series [1] (30 C, 10 mM MgCl2) turned out to be 5.
On the same count and under the same terms, the same measure for “AGTTCCTATACTTCCGAGAGAATAGGAACT (double strand) [FRT43]”: 14; for “AGTTCCTATACTTCCATAAGAATAGGAACT (double strand) [FRT76]”: 30; for “AGTTCCTATACTCTCTAGAGAATAGGAACT (double strand) [FRT89]”: 39.
Still for that read-out and setting: the same measure for “AGTTCCTATACTGATTGGAGAATAGGAACT (double strand) [FRT65]”: 18; for “AGTTCCTATACTTTCTTGAGAATAGGAACT (double strand) [FRT85]”: 116; for “AGTTCCTATACTCTCTTGAGAATAGGAACT (double strand) [FRT45]”: 5.

Source of the values: patent US20130052739.
